Data published in paper PMC3262814, “Purification and Activity Testing of the Full-Length YycFGHI Proteins of Staphylococcus aureus” (PLoS ONE, 2012).
Values joined by “and” are separate entries in the source; they are usually repeats but may differ in a detail not shown here. Equal values may be shown once.

B1: YycG-C-His6 (enzyme, Staphylococcus aureus SA137/93A)
chain: MGMKWLKQLQSLHTKLVIVYVLLIIIGMQIIGLYFTNNLEKELLDNFKKNITQYAKQLEISIEKVYDEKGSVNAQKDIQNLLSEYANRQEIGEIRFIDKDQIIIATTKQSNRSLINQKANDSSVQKALSLGQSNDHLILKDYGGGKDRVWVYNIPVKVDKKVIGNIYIESKINDVYNQLNNINQIFIVGTAISLLITVILGFFIARTITKPITDMRNQTVEMSRGNYTQRVKIYGNDEIGELALAFNNLSKRVQEAQANTESEKRRLDSVITHMSDGIIATDRRGRIRIVNDMALKMLGMAKEDIIGYYMLSVLSLEDEFKLEEIQENNDSFLLDLNEEEGLIARVNFSTIVQETGFVTGYIAVLHDVTEQQQVERERREFVANVSHELRTPLTSMNSYIEALEEGAWKDEELAPQFLSVTREETERMIRLVNDLLQLSKMDNESDQINKEIIDFNMFINKIINRHEMSAKDTTFIRDIPKKTIFTEFDPDKMTQVFDNVITNAMKYSRGDKRVEFHVKQNPLYNRMTIRIKDNGIGIPINKVDKIFDRFYRVDKARTRKMGGTGLGLAISKEIVEAHNGRIWANSVEGQGTSIFITLPCEVIEDGDWDE
notes: two additional residues (Met-Gly) at the N-terminus, from the NcoI site placed in frame; Cloned NcoI/XhoI into pET22bΔpelB; also called WalK; VicK; source: E. coli C41(DE3) or C43(DE3) pREP4groESL(MT), purified from the membrane fraction (DDM, Ni-NTA); not shown: His6, C-terminal, kept
B2: YycG(Y306N)-C-His6 (enzyme)
chain: MGMKWLKQLQSLHTKLVIVYVLLIIIGMQIIGLYFTNNLEKELLDNFKKNITQYAKQLEISIEKVYDEKGSVNAQKDIQNLLSEYANRQEIGEIRFIDKDQIIIATTKQSNRSLINQKANDSSVQKALSLGQSNDHLILKDYGGGKDRVWVYNIPVKVDKKVIGNIYIESKINDVYNQLNNINQIFIVGTAISLLITVILGFFIARTITKPITDMRNQTVEMSRGNYTQRVKIYGNDEIGELALAFNNLSKRVQEAQANTESEKRRLDSVITHMSDGIIATDRRGRIRIVNDMALKMLGMAKEDIIGNYMLSVLSLEDEFKLEEIQENNDSFLLDLNEEEGLIARVNFSTIVQETGFVTGYIAVLHDVTEQQQVERERREFVANVSHELRTPLTSMNSYIEALEEGAWKDEELAPQFLSVTREETERMIRLVNDLLQLSKMDNESDQINKEIIDFNMFINKIINRHEMSAKDTTFIRDIPKKTIFTEFDPDKMTQVFDNVITNAMKYSRGDKRVEFHVKQNPLYNRMTIRIKDNGIGIPINKVDKIFDRFYRVDKARTRKMGGTGLGLAISKEIVEAHNGRIWANSVEGQGTSIFITLPCEVIEDGDWDE
notes: two additional residues (Met-Gly) at the N-terminus, from the NcoI site placed in frame; YycG (WalK/VicK) sensor histidine kinase of Staphylococcus aureus with the exchange Y306N (nucleotide exchange T916A) in the cytoplasmic PAS domain; Cloned NcoI/XhoI into pET22bΔpelB; also called mutant kinase; mutated YycG kinase; source: E. coli C41(DE3) or C43(DE3) pREP4groESL(MT), purified from the …

What was measured:
[1] = target: YycI-C-His6 (Staphylococcus aureus SA137/93A); assay: native gel or EMSA; blue native PAGE (BN-PAGE) of single proteins; 4-20% Tris-HCl gradient gel; 5 µg of YycF, YycH, YycI or 10 µg of YycG, YycG(Y306N) in 10 µl dialysis buffer I (50 mM NaH2PO4, 300 mM NaCl, 50% glycerol, pH 8) with Coomassie Brilliant Blue R250; 80 V, 4-7°C; masses calibrated with soluble markers and a conversion factor
[2] = target: the molecule itself; assay: as above

Molecule	stoichiometry N [1]	stoichiometry N [2]
YycI-C-His6 (natural protein)	< 6	
B1		2 and 3 and 4
B2		2 and 3 and 4
